Target: T1, MHP14+ meganuclease (single-chain engineered I-CreI) (artificial)
T1 chain: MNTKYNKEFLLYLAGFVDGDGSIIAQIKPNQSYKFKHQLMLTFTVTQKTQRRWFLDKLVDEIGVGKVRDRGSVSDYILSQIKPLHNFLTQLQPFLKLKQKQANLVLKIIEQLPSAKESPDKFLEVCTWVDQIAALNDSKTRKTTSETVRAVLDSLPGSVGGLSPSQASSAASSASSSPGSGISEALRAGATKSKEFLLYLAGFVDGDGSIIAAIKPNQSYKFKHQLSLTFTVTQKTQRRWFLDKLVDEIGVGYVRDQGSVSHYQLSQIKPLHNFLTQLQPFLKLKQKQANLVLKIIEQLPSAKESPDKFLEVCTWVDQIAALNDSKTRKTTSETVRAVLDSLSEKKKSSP
Assay: cleavage_in_vitro; depends on reaction temperature
Settings: tags: expressed from pQE80 in E. coli, Ni-NTA purified
Procedure: To generate material for the capture of genomic variant recognition sites, in vitro assays were carried out with 114 nM of purified meganuclease protein isolated as described in Example 2 and 6.07 μg of purified maize genomic DNA at 32° C. for 80 minutes in a final volume of 80 μl in the presence of digestion buffer (50 mM Tris-HCl (pH 7.9), 100 mM NaCl, 10 mM MgCl₂, 1 mM DTT, […]). After 80 minutes, the entire reaction was stopped with an equal volume of stop buffer (100 mM Tris-HCl (pH 8.0), 600 mM NaCl, 2% SDS, 100 mM EDTA, 1 mg of proteinase K per ml) and incubated at 50° C. for 30-45 minutes. Stopped reactions were purified by phenol/chloroform extraction and ethanol precipitated in the presence of 0.2 M NaCl. Precipitated genomic DNA was washed twice with 70% ethanol, dried, and resuspended in 34 μl of water. […]

B1: MHP14+ maize genomic variant site (dsDNA)
DNA 1: CAAGAAGAAGCACGTCAGCTTA
DNA 2: TAAGCTGACGTGCTTCTTCTTG
  relative cleavage activity: ~3 fold vs intended site
